Assays:
[1] = system: Human Cervical Cancer Hela Xenografts; test: rSIFN-co on human cervical cancer Hela xenografts in nude mice; assay type: in vivo; conditions: for TV(mm^3, mean ± SD) (D 0): day 0; for % Inhibition / T/C (%) / TV(mm^3, mean ± SD) (D 28): day 28
Procedure: Then 1.5 mm^3 fragments were prepared for s.c. implantation into the animals.

[2] = system: phosphorylation of STAT1 (Tyr701), STAT2 (Tyr690), and STAT3 (Tyr705); test: p-STAT induction after B18R pre-incubation, Western blot; assay type: cell-based, human; conditions: IFN 1 ng/ml, B18R 10 ng/ml, 30 min, compared to IFNα-2b
[3] = system: STAT1 (Tyr701), STAT2 (Tyr690), STAT3(Tyr705); test: STAT phosphorylation by Western Blot; assay type: cell-based, human; conditions: A549 cells and Hela cells, 10 μg/ml, 0-240 minutes
Excerpt: After treatment, the cells were collected, cellular proteins were extracted and loaded onto SDS-PAGE […] for Western Blot analysis to observe the phosphorylation of STAT1 (Tyr701), STAT2 (Tyr690), and STAT3(Tyr705). GAPDH was used as a loading control.
The primary antibodies used were: STAT1 (1:1000, Cat #: 9175S), Tyr701 phosphorylated-STAT1 (1:1000, Cat #: 9167S), STAT2 (1:500, Cat #4594), Tyr690 phosphorylated-STAT2 (1:1000, Cat #: 441S), STAT3 (1:1000, Cat #: 9132), Tyr705 phosphorylated-STAT3 (1:1000, Cat #: 9145S). Anti-mouse (Cat #:sc-2005) or rabbit (Cat #: sc-2004) or goat (Cat #: sc-2020) HRP-conjugated secondary antibodies (Santa Cruz Technology, Santa Cruz, Calif.) were used at concentrations of 1:2000. Blots were visualized by use of Luminescence/Fluorescence Imaging LAS4000 System (GE Healthcare Life Sciences, USA) with super signal west pico chemiluminescnet substrate kit (Thermo Scientific, USA).

different cancer cells = test: Cell viability, Am-Blue assay, 48 hr, statements over all cell lines; assay type: cell-based, human; conditions: any of the cancer cell lines
Procedure: Cell culture and reagents. human lung cancer cell lines (A549, H1299, H460, Calu-1), human liver cancer cell lines (SMMC-7721, Huh-7, CL-1), human cervical carcinoma cell line (Hela), human breast cancer cell line (MDA-MB-231), human pancreatic cancer cell line (PANC-1) and human colon cancer cell lines (SW620, HT29, SW480) were purchased from the Shanghai Cell Collection (Shanghai, China). The above cell lines were cultured in 5% CO2 at 37° C. in corresponding complete growth medium formulated by the Shanghai Cell Collection, with 10% heat-inactivated fetal bovine serum (Biochrom, Germany), supplemented with 4 mM glutamine, 50 U/ml penicillin and […] streptomycin.
About 5×10^3 cells in 100 μl complete medium per well were plated in 96-well plates, incubated overnight, and then treated with IFN α-2b or rSIFN-co at concentrations of 100 μg/ml, 50 μg/ml, 25 μg/ml, 12.5 μg/ml, 6.25 μg/ml, 3.13 μg/ml, 1.56 μg/ml, 0.78 μg/ml, 0.39 μg/ml, and 0.20 μg/ml, respectively, for about 48 hr, at which time the cells were harvested for analysis. The cell viability rate was evaluated by SunBio Am-Blue assay kit (Cat #: SBAB8025, Shanghai SBO Medical Biotechnology Co., Ltd, Shanghai, China). […] After shaking the plates for 30 seconds, the absorbance for each well was read at both 570 nm and 595 nm by a Thermo Scientific Microplate Reader (Thermon Fisher Scientific, Inc., Lowell, Mass.). […]

KLF4 = test: qPCR of tumor suppressor gene; assay type: cell-based, human; conditions: 10 mcg/ml, 24 hr
Excerpt: (§1) After 24 hr of treatment, total cellular mRNA was isolated using TRIZOL Reagent, and cDNA was synthesized, and further subjected to qPRC using specific primers for DKK3, KLF4 and BATF2. The following primers were used: for BATF2, sense primers: 5′-[…]-3′ (SEQ ID NO: 16) and antisense primers: 5′-[…]-3′ (SEQ ID NO: 17); for DKK3, sense primers: 5′-[…]-3′(SEQ ID NO: 18) and antisense primers: 5′-[…]-3′ (SEQ ID NO: 19); for KLF4, sense primers: 5′-[…]-3′ (SEQ ID NO: 20) and antisense primers: 5′-[…]-3′ (SEQ ID NO: 21).
(§2) The experiment was conducted in triplicate and normalized with the mock control group. Results, shown in FIG. 12, were expressed as relative mRNA expression level in relation to that of GAPDH.

BATF2 = test: qPCR of tumor suppressor gene; assay type: cell-based, human; conditions: A549 cells, 10 mcg/ml, 24 hr
Excerpt: as §1, §2

FZD6 = test: qPCR of Wnt-related receptor mRNA; assay type: cell-based, human; conditions: 10 μg/ml, 24 hr
Procedure: The regulation of LRP6/FZD6 by rSIFN-co was investigated. This was conducted by qPCR as performed in Example 9. […] After 24 hr of treatment, total cellular mRNA was isolated using TRIZOL Reagent, and cDNA was subjected to qPCR using specific primers of LRP6 and FZD6. The primers used were: LRP6 sense primer: 5′-[…]-3′ (SEQ ID NO: 4) and antisense primer: 5′-[…]-3′ (SEQ ID NO: 5), and FZD6 sense primer: 5′-[…]-3′ (SEQ ID NO: 6) and antisense primer: 5′-[…]-3′ (SEQ ID NO: 7). Experiments were conducted in triplicate and normalized with the Mock control group. Results were recorded as relative mRNA level of either LRP6 or FZD6 relative to GAPDH.

[4] = 0.05 mg/mouse i.t. every other day
[5] = 0.10 mg/mouse i.t. every other day
[6] = 0.15 mg/mouse i.t. every other day

B1: rSIFN-co: Recombinant super-compound interferon; amino acid sequence SEQ ID NO: 1 (same as INFERGEN), encoded by novel nucleotide sequence SEQ ID NO: 2 (protein)
chain: MCDLPQTHSLGNRRALILLAQMRRISPFSCLKDRHDFGFPQEEFDGNQFQKAQAISVLHEMIQQTFNLFSTKDSSAAWDESLLEKFYTELYQQLNDLEACVIQEVGVEETPLMNVDSILAVKKYFQRITLYLTEKKYSPCAWEVVRAEIMRSFSLSTNLQERLRRKE
modifications: Amino acid sequence of recombinant interferon
[1]; [4]
  TV(mm^3, mean ± SD) (D 0): 135 ± 26 mm^3
  % Inhibition: 46.67%
  T/C (%): 53.33%
  TV(mm^3, mean ± SD) (D 28): 886 ± 232 mm^3
[1]; [5]
  TV(mm^3, mean ± SD) (D 0): 135 ± 28 mm^3
  % Inhibition: 46.67%
  T/C (%): 53.33%
  TV(mm^3, mean ± SD) (D 28): 865 ± 186 mm^3
[1]; [6]
  TV(mm^3, mean ± SD) (D 0): 136 ± 25 mm^3
  % Inhibition: 40.40%
  T/C (%): 59.60%
  TV(mm^3, mean ± SD) (D 28): 1025 ± 400 mm^3
[1]; 0.05-0.15 mg/mouse i.t. every other day, 28 days
  tolerability, signs of toxicity: tolerated the rSIFN-co treatments with no signs of toxicity
[1]; 28-day treatment period
  change in average body weight: Very little change in average body weight
[2]; A549 cells
  induction of phosphorylation on STAT1/2/3 after B18R pre-incubation: greater induction of phosphorylation on STAT1/2/3
[2]; Hela cells
  induction of phosphorylation on STAT1/2/3 after B18R pre-incubation: greater induction of phosphorylation on STAT1/2/3
[3]
  phosphorylation patterns for STAT1, STAT2 and STAT3 (JAK/STATs signaling level): no different from that mediated by IFN alpha-2b
Different cancer cells
  cell viability at 100 mcg/ml: cell viability could not be detected
KLF4; A549 cells
  relative mRNA expression level of KLF4: dramatically increased
KLF4; SW620 cells
  relative mRNA expression level of KLF4: dramatically increased as compared to control and IFN alpha-2b treatment
BATF2
  relative mRNA expression level of BATF2: dramatically increased
FZD6; A549 cells
  relative expression of FZD6 mRNA: significant reduction
FZD6; H460 cells
  relative expression of FZD6 mRNA: significant reduction
FZD6; HT-29 cells
  relative expression of FZD6 mRNA: significant reduction
FZD6; SW620 cells
  relative expression of FZD6 mRNA: significant reduction

Reference: patent US10877024B2, “Methods of determining interferon having direct inhibitory effects on tumors and uses thereof” (SUPERLAB FAR EAST LIMITED, priority 2015, dated 2020)
